# Earlier results in paper PMC8330535.
# Molecular target: ARNT PAS-B (Homo sapiens) (UniProt P27540)
# Details: cited from earlier work
# Sequence of ARNT PAS-B (Homo sapiens) (P27540 356-470): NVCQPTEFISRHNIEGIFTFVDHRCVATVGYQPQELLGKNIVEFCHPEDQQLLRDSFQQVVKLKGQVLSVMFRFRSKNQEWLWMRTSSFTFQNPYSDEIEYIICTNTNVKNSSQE
# Sequence of HIF-1α PAS-B (Q16665 238-349): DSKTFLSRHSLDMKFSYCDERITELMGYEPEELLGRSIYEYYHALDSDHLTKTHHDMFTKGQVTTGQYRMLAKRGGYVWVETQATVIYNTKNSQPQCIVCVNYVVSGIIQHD
substance,measurement,value
HIF-1α PAS-B (from UniProt Q16665),Kd,125 nM
